# Target: T1, HLA-A2.1 MHC class I on the surface of T2 cells
# T1 construct: whole, on cells; MHC class I molecule stabilised on T2 cells by added peptide
# Test: T2 MHC class I stabilisation, flow cytometry with anti HLA-A2.1 mAb, peptide at 100 ug (printed '100 lg'), n = 3
# Description: (§1) 2. CAPABILITY OF T21-DERIVED PEPTIDES TO STABILISE MHC CLASS I ON THE SURFACE OF T2 CELLS. Each of the peptides were then screened in a standard T2 assay to determine their ability to stabilise MHC class I molecules on the surface of T2 cells. In brief, T2 cells were cultured routinely in suspension and when required, resuspended to 4×10⁶ cells/ml. 40 μl of the cell suspension was added to round bottom 96 well plates to give a final cell number of 1.6×10⁵ cells/well. Test peptide was added to the wells in triplicate at concentrations of 100, 10, 1 μg. As a control, T2 cells were also treated with equivalent concentrations of DMSO. Following overnight incubation, cells were harvested into FACS tubes, washed and labelled with anti HLA-A2.1 monoclonal antibody (primary antibody) and FITC conjugated goat IgG F(ab′)₂ anti mouse Ig (secondary antibody). Cells were then analysed using a FACScan spectrofluorometer. (See Table 5 and FIG. 6).
# (§2) TABLE 5 Mean T2 binding ratios calculated for the four T21-derived peptides. Mean fluorescence (T2 binding ratio) was calculated by dividing the fluorescence observed for the test peptide by the fluorescence observed for the control (DMSO).
row,Mean T2 binding ratio,Binder
1,0.893 ratio to DMSO control,SLERLVNAI (Synthetic peptide) [T21:660 peptide]
2,0.933 ratio to DMSO control,VIAKFQNKL (Synthetic peptide) [T21:607 peptide]
3,2.86 ratio to DMSO control,YLIHLLQEL (Synthetic peptide) [T21:765 peptide]
4,0.921 ratio to DMSO control,LIIPSLERL (Synthetic peptide) [T21:656 peptide]

# Target: T1, HLA-A2.1 MHC class I on the surface of …
# Test: T2 MHC class I stabilisation, flow cytometry with anti HLA-A2.1 mAb, peptide at 10 ug (printed '10 lg'), n = 3
# Description: as §1, §2
row,Mean T2 binding ratio,Binder
1,0.942 ratio to DMSO control,SLERLVNAI (Synthetic peptide) [T21:660 peptide]
2,0.967 ratio to DMSO control,VIAKFQNKL (Synthetic peptide) [T21:607 peptide]
3,1.11 ratio to DMSO control,YLIHLLQEL (Synthetic peptide) [T21:765 peptide]
4,0.928 ratio to DMSO control,LIIPSLERL (Synthetic peptide) [T21:656 peptide]

# Target: T1, HLA-A2.1 MHC class I on the surface of …
# Test: T2 MHC class I stabilisation, flow cytometry with anti HLA-A2.1 mAb, peptide at 1 ug (printed '1 lg'), n = 3
# Description: as §1, §2
row,Mean T2 binding ratio,Binder
1,0.918 ratio to DMSO control,SLERLVNAI (Synthetic peptide) [T21:660 peptide]
2,0.951 ratio to DMSO control,VIAKFQNKL (Synthetic peptide) [T21:607 peptide]
3,0.955 ratio to DMSO control,YLIHLLQEL (Synthetic peptide) [T21:765 peptide]
4,0.955 ratio to DMSO control,LIIPSLERL (Synthetic peptide) [T21:656 peptide]
